Molecular target: (GST-GATE16)2 (UniProt P60520)
Assay: SEC-MALS; 100 μl of 1 mg/ml protein on a WTC-030 column; 20 mM Tris, 150 mM NaCl, pH 7.5; 0.5 ml/min

stoichiometry N: 2
Substance: (GST-GATE16)2 (from UniProt P60520 1-117) (natural protein)

Source: article PMC12872393, “NCOA4 initiates ferritinophagy by avidly binding GATE16 using two short linear interaction motifs” (Life Science Alliance, 2026)
